How the values were obtained:
Assay in all cases: ELISA: SEAP-His proteins (1 nM) captured on anti-6-His antibody, antibody B 10 µg/mL with human IgG 100 µg/mL, HRP anti-human IgG, OD450 as % of human EphA4-SEAP-His
[1] = target: T1, human EphB6 extracellular region-SEAP-His protein (human, UniProt O15197 32-594)
T1 construct: extracellular domain; also called Eph receptor extracellular region-SEAP-His protein; not shown: secretory alkaline phosphatase (SEAP); histidine tag
T1 sequence (looked up): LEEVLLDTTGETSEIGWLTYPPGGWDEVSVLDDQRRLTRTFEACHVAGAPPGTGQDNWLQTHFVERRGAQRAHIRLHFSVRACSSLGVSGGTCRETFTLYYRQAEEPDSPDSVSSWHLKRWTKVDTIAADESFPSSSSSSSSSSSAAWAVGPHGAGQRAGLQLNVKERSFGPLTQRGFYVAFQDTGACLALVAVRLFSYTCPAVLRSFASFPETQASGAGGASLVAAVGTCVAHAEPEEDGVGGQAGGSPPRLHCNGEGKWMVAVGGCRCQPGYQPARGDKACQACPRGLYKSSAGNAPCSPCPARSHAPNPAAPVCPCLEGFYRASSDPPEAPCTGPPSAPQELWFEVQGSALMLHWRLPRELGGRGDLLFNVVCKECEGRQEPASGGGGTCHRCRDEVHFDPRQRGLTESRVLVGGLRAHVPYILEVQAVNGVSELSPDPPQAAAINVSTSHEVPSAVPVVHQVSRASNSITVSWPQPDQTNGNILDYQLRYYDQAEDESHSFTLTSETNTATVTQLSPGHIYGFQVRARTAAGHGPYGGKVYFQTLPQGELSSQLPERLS

[2] = target: T2, human EphA5 extracellular region-SEAP-His protein (human, UniProt P54756 25-573)
T2 construct: extracellular domain; also called Eph receptor extracellular region-SEAP-His protein; not shown: secretory alkaline phosphatase (SEAP); histidine tag

[3] = target: T3, human EphA3 extracellular region-SEAP-His protein (human, UniProt P29320 21-541)
T3 construct: extracellular domain; also called Eph receptor extracellular region-SEAP-His protein; not shown: secretory alkaline phosphatase (SEAP); histidine tag
T3 sequence (looked up): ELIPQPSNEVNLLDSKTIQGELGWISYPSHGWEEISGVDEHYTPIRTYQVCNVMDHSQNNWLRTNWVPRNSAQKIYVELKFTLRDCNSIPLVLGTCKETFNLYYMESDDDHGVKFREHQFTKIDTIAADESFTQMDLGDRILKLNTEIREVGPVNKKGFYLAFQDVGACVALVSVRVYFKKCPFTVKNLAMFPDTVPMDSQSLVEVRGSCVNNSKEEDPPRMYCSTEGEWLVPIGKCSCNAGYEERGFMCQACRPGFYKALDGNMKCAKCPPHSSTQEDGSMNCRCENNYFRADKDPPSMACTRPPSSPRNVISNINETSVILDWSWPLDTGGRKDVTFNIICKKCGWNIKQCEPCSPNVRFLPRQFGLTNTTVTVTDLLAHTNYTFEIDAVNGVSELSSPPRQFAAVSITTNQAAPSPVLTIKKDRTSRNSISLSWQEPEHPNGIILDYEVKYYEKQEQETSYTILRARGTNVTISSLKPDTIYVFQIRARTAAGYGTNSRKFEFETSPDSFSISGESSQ

[4] = target: T4, human EphA1 extracellular region-SEAP-His protein (human, UniProt P21709 26-547)
T4 construct: extracellular domain; also called Eph receptor extracellular region-SEAP-His protein; not shown: secretory alkaline phosphatase (SEAP); histidine tag
T4 sequence (looked up): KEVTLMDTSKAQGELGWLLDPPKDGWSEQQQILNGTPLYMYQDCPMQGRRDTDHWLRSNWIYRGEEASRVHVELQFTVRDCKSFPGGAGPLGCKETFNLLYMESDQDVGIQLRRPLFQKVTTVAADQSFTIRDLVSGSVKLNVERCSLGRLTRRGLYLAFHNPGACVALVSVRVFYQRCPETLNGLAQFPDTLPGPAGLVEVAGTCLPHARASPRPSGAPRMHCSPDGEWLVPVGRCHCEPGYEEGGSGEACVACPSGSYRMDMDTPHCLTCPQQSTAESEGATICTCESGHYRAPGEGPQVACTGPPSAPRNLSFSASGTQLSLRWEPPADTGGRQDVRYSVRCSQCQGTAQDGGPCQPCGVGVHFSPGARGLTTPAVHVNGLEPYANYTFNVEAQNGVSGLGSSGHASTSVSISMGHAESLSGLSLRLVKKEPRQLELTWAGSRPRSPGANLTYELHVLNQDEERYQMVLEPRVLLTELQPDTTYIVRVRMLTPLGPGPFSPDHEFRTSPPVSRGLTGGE

[5] = target: T5, human EphA10 extracellular region-SEAP-His protein (human, UniProt Q5JZY3 34-565)
T5 construct: extracellular domain; also called Eph receptor extracellular region-SEAP-His protein; not shown: secretory alkaline phosphatase (SEAP); histidine tag
T5 sequence (looked up): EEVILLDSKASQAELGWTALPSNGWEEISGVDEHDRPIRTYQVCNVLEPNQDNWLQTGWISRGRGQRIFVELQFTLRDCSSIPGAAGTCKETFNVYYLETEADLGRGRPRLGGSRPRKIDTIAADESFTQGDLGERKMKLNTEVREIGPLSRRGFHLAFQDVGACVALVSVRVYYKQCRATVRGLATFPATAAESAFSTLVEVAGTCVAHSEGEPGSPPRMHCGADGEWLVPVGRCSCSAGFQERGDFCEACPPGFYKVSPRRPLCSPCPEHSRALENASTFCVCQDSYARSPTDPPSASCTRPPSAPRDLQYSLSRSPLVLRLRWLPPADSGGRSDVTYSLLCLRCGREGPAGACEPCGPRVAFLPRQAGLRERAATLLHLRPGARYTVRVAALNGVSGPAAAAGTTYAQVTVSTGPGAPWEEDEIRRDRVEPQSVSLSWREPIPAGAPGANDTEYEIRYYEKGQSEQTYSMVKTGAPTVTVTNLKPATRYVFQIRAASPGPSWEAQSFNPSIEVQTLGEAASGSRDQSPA

Measured: binding result

T2 sequence (P54756 25-573): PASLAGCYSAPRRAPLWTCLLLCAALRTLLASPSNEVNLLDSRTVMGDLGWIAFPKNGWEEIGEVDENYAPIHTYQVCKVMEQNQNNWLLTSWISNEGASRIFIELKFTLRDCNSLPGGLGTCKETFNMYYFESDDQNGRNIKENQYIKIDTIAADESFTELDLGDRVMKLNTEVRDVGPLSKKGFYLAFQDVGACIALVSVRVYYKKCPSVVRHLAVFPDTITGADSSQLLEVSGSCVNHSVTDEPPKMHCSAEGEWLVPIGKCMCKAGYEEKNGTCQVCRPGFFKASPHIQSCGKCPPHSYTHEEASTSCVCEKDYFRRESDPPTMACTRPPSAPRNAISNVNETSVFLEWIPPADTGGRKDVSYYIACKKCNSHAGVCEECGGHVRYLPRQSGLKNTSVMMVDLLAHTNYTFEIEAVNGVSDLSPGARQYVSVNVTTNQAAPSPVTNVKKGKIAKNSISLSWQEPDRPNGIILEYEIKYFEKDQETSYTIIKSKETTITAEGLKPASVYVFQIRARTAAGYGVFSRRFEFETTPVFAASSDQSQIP

B1: humanized anti-EphA4 monoclonal antibody (antibody B) (antibody, human IgG2, V domains shown)
VH: QVQLVESGGGVVQPGRSLRLSCAVSGFSLTRFGVHWVRQAPGKGLEWVAVIWRGGSTDYNAAFMSRLTISKDNSKNTVYLQMNSLRAEDTAVYYCAKESLFGVYYDYGYYSMDYWGQGTTVTVSS
VL: DIQMTQSPSSLSASVGDRVTITCRASQEISGYLSWLQQKPGKAPKRLIYAASTLDSGVPSRFSGSRSGTEYTLTISSLQPEDFATYYCLQYASYPLTFGGGTKVEIKR
notes: expressed in Expi293F cells; also called humanized antibody of antibody A; HK2-42 / L1-8
no binding (tested: 10 µg/mL): [1] | [2] | [3] | [4] | [5]

Reference: patent publication US20240010735A1 (EISAI R AND D MANAGEMENT, published 2024)
